These results are taken from the supplement of paper PMC9732359.

± gives the uncertainty stated by the source.

This data set in a line: protein stability index of a GFP-peptide fusion (yeast GPS) (PSI 1-4); higher = more stable; sorted into four equal gates, so the index is relative within each strain. In a few lines: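 Tiled yeast protein peptides of 17 residues were each joined downstream of GFP, on plasmids that also express Cherry. The pooled library was maintained in yeast, and mid-log cultures in leucine-free medium were sorted into four equal gates on the GFP/Cherry ratio. Plasmids from every gate were amplified by PCR and sequenced on Illumina, with barcodes linking reads to strains. The protein stability index of a peptide is its gate-number-weighted read frequency summed over the gates.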

As to HVFQYANRPRLVGRKPA [RPC37], the protein stability index is, setting by setting: (doa10∆) 2.86 ± 0.23; (san1∆) 2.28 ± 0.28; (ubr1∆) 2.69 ± 0.082.

Take PELAMALRLSMEEEQQR [RPN10]: the protein stability index is, setting by setting: (doa10∆) 3.15 ± 0.14; (pdr5∆) 3.09 ± 0.061; (ubr1∆) 3.14 ± 0.08.

GGVDVGPSVESYELRNT [SNF5]: the protein stability index was found to be 2.9 ± 0.1 (doa10∆), 3.15 ± 0.11 (pdr5∆), 3.04 ± 0.075 (san1∆) and 3.28 ± 0.079 (ubr1∆).

Turning to KTLTGKTITLEVESSDT [RPS31], the protein stability index came to 2.62 ± 0.048 (doa10∆), 2.73 ± 0.04 (pdr5∆), 2.43 ± 0.065 (san1∆) and 1.97 ± 0.034 (ubr1∆).

Consider QWRYLYDTQLKVSPEEL [ARP7], for which the protein stability index is, setting by setting: (doa10∆) 1.98 ± 0.042; (pdr5∆) 1.97 ± 0.042; (san1∆) 2.08 ± 0.056; (ubr1∆) 1.67 ± 0.049.

As for PSLELSAEYLQMSLEAN [YJR042W/NUP85], the protein stability index was found to be 1.78 ± 0.087 (doa10∆), 2.15 ± 0.095 (pdr5∆), 2.54 ± 0.18 (san1∆) and 2.4 ± 0.07 (ubr1∆).

TTFTHCEIHPSMILGVA [RPB2] yielded a protein stability index (doa10∆) of 1.75 ± 0.11, a protein stability index (pdr5∆) of 2.39 ± 0.075, a protein stability index (san1∆) of 1.3 ± 0.14 and a protein stability index (ubr1∆) of 2.57 ± 0.098.

As to LSNIPLLLITHHSWSQS [ARP9], the protein stability index was determined as 2.25 ± 0.075 (doa10∆), 1.6 ± 0.045 (pdr5∆), 1.51 ± 0.073 (san1∆) and 1.96 ± 0.047 (ubr1∆).

In turn, IGGLLSKVREEVGDVCI [RPO31] registered a protein stability index (doa10∆) of 2.13 ± 0.1, a protein stability index (pdr5∆) of 1.86 ± 0.067, a protein stability index (san1∆) of 2.11 ± 0.11 and a protein stability index (ubr1∆) of 2.79 ± 0.11.

RTGPKALPDAVTIIEPK [RPS3]: the protein stability index reads like this: (doa10∆) 2.97 ± 0.058; (pdr5∆) 3.03 ± 0.066; (san1∆) 3.1 ± 0.059; (ubr1∆) 3.09 ± 0.06.

For the sequence CAINSKSRGSDLQYLGE [RRP6], the protein stability index by setting is: (doa10∆) 3.11 ± 0.06; (pdr5∆) 3.18 ± 0.068; (san1∆) 2.7 ± 0.069; (ubr1∆) 3.2 ± 0.053.

Consider RLWLKKVMEEEEQDCKC [POP8], for which the protein stability index reads like this: (doa10∆) 2.5 ± 0.095; (pdr5∆) 2.9 ± 0.084; (san1∆) 3.07 ± 0.079; (ubr1∆) 2.8 ± 0.083.

As for INLTQTYGISVVDVALK [NUT1], the protein stability index (doa10∆) came to 2.24 ± 0.077, the protein stability index (pdr5∆) came to 1.91 ± 0.054, the protein stability index (san1∆) is 1.76 ± 0.1 and the protein stability index (ubr1∆) amounted to 2.55 ± 0.038.

In the case of DYIKDEQRHLKRELKRA [RPT3], the protein stability index (doa10∆) stood at 2.25 ± 0.058, the protein stability index (pdr5∆) worked out at 2.06 ± 0.056, the protein stability index (san1∆) stood at 1.98 ± 0.14 and the protein stability index (ubr1∆) came to 1.68 ± 0.037.

With NHPELQGITRNVVNYLS [RPC17], the protein stability index came out at 2.02 ± 0.062 (doa10∆), 1.83 ± 0.061 (pdr5∆), 2.19 ± 0.11 (san1∆) and 2.47 ± 0.062 (ubr1∆).

Regarding DLKSKADKLADMANEII [RRP6], the protein stability index reads like this: (doa10∆) 3.38 ± 0.15; (pdr5∆) 3.17 ± 0.12; (san1∆) 3.19 ± 0.082; (ubr1∆) 3.16 ± 0.085.

With SDPESERPAIEFETPTF [RPN14], the protein stability index reads like this: (doa10∆) 3.13 ± 0.054; (pdr5∆) 3.11 ± 0.055; (san1∆) 3.02 ± 0.047; (ubr1∆) 3.15 ± 0.053.

Consider ISTPIINAVLVNDNDER [RPO31], for which the protein stability index was 2.25 ± 0.085 (doa10∆), 2.22 ± 0.1 (pdr5∆), 2.31 ± 0.12 (san1∆) and 2.21 ± 0.086 (ubr1∆).

Take NDDKKTEPDKPAFSFNS [YJL041W/NSP1]: the protein stability index is, setting by setting: (doa10∆) 2.89 ± 0.047; (pdr5∆) 3.12 ± 0.039; (san1∆) 3.07 ± 0.032; (ubr1∆) 3.202 ± 0.029.

Take LATAHIYLSRFLIKASV [SSN8]: the protein stability index stood at 1.23 ± 0.042 (doa10∆), 1.34 ± 0.051 (pdr5∆), 1.31 ± 0.16 (san1∆) and 1.07 ± 0.055 (ubr1∆).

As to LPFQRLVREIAQDFKTD [HHT1], the protein stability index stood at 1.93 ± 0.066 (doa10∆), 2.48 ± 0.061 (pdr5∆), 2.48 ± 0.073 (san1∆) and 2.35 ± 0.074 (ubr1∆).

Where the note is “san1∆”, IELLCGLGKSAVNWQDK [NAS6] returned a protein stability index of 3.75 ± 0.086.

As for EPPAGVALPPGSNYNPY [CYT1], the protein stability index was 2.77 ± 0.12 (doa10∆), 3.13 ± 0.076 (pdr5∆), 2.83 ± 0.12 (san1∆) and 3.15 ± 0.047 (ubr1∆).

RTDQYTIDNIDSENFSF [YMR129W/POM152]: the protein stability index stood at 2.88 ± 0.042 (doa10∆), 2.99 ± 0.043 (pdr5∆), 2.91 ± 0.039 (san1∆) and 3.01 ± 0.036 (ubr1∆).

Take DDDNSNVDYYNVAHRIK [SNF2]: the protein stability index reads like this: (doa10∆) 3.31 ± 0.048; (pdr5∆) 3.15 ± 0.044; (san1∆) 3.06 ± 0.031; (ubr1∆) 3.23 ± 0.038.

In the case of VSLVAEATSNTNSEDKL [MED4], the protein stability index was 2.84 ± 0.12 (doa10∆), 3.03 ± 0.078 (pdr5∆), 2.84 ± 0.082 (san1∆) and 2.65 ± 0.1 (ubr1∆).
